Holding throughout (assay): in vitro binding assay to recombinant MHC class II protein
For test [1], the target named is MHC class II of the HLA DRB1 0404 genotype (Homo sapiens, UniProt P01903+P01911, A100R/A169T/F76Y/I96L/K127E/L162R/M171V/N62H/P40V/Q125Y/R42H/S133A/S149N/S66Y/V209L/W38E). Set-up: key: *0101: the listing of the allele in the column for the allele indicates binding; *0401: “0401” in the “Binds to 0401” column indicates binding of the peptide to MHC class II of the HLA DRB1 0401 genotype; *0404: the listing of the allele in the column for the allele indicates binding; *0405: the listing of the allele in the column for the allele indicates binding; *0408: the listing of the allele in the column for the allele indicates binding; *1001: the listing of the allele in the column for the allele indicates binding; “no” or no data indicates no binding to a protein of that genotype. From the text:
(§1) Binding of the peptides to recombinant MHC class II protein of various alleles has been confirmed in an in vitro binding assay and the results are shown in Tables 1, 2 and 3. In table 1, 2 and 3, the listing of the allele in the column for the allele indicates binding. Thus “0401” in the “Binds to 0401” column indicates binding of the peptide to MHC class II of the HLA DRB1 0401 genotype. “no” or no data indicates no binding to a protein of that genotype. Empty boxes indicate no binding or that binding has not been determined. In the tables it is also indicated if the peptide has a citrulline residue, where “yes” indicates the presence of a citrulline residue and “no” indicates the absence of a citrulline residue.

Test [2] has as its target MHC class II of the HLA DRB1 0405 genotype (Homo sapiens, UniProt P01903+P01911, A100R/A169T/D86S/F76Y/I96L/K127E/L162R/M171V/N62H/P40V/Q125Y/R42H/S133A/S149N/S66Y/V115G/V209L/W38E). Also on record: key: *0101: the listing of the allele in the column for the allele indicates binding; *0401: “0401” in the “Binds to 0401” column indicates binding of the peptide to MHC class II of the HLA DRB1 0401 genotype; *0404: the listing of the allele in the column for the allele indicates binding; *0405: the listing of the allele in the column for the allele indicates binding; *0408: the listing of the allele in the column for the allele indicates binding; *1001: the listing of the allele in the column for the allele indicates binding; “no” or no data indicates no binding to a protein of that genotype.
Description: as §1

In test [3] the target is MHC class II of the HLA DRB1 0401 genotype (Homo sapiens, UniProt P01903+P01911, A100K/A169T/F76Y/I96L/K127E/L162R/M171V/N62H/P40V/Q125Y/R42H/S133A/S149N/S66Y/V115G/V209L/W38E). Also on record: key to Binds to 0401: *0101: the listing of the allele in the column for the allele indicates binding; *0401: “0401” in the “Binds to 0401” column indicates binding of the peptide to MHC class II of the HLA DRB1 0401 genotype; *0404: the listing of the allele in the column for the allele indicates binding; *0405: the listing of the allele in the column for the allele indicates binding; *0408: the listing of the allele in the column for the allele indicates binding; *1001: the listing of the allele in the column for the allele indicates binding; “no” or no data indicates no binding to a protein of that genotype. The following applies: recombinant MHC class II, HLA DRB1 0401.
Description: as §1
Thus for these peptides no binding to HLA-DR0401 was observed when citrulline was exchanged with the original amino acid arginine (Table 4). No binding of the citrullinated peptides was seen to HLA-DR 03 or 02 variants.

Test [4] concerns the target MHC class II of the HLA DRB1 0101 genotype (Homo sapiens, UniProt P01903+P01911, A100R/D57E/F55L/F60I/F76Y/I96L/L162R/M171V/P40L/Q125E/R42F/V115G/Y59C). Set-up: key: *0101: the listing of the allele in the column for the allele indicates binding; *0401: “0401” in the “Binds to 0401” column indicates binding of the peptide to MHC class II of the HLA DRB1 0401 genotype; *0404: the listing of the allele in the column for the allele indicates binding; *0405: the listing of the allele in the column for the allele indicates binding; *0408: the listing of the allele in the column for the allele indicates binding; *1001: the listing of the allele in the column for the allele indicates binding; “no” or no data indicates no binding to a protein of that genotype.
Description: as §1

Square brackets hold non-standard residues; d marks the D form. Ends that are not written are not given here. Cit = NC(=O)NCCC[C@H](N)C(=O)O

In the case of “vimentin 41: human vimentin peptide, not citrullinated (NTLQSFRQDVDNASL; listed as Homo sapiens)”, in test [1], the “Binds to 0404” value is given as “*0404”. Also, the “Binds to 0405” value in test [2] is “*0405”. Besides, the “Binds to 0401” value in test [3] was “*0401”.
As for “vimentin 111: citrullinated human vimentin peptide (FKNT[Cit]TNEKVELQEL; listed as Homo sapiens)”, the “Binds to 0101” value in test [4] is “*0101”. For the same substance, the “Binds to 0404” value in test [1] is given as “No”. For the same substance, in test [2], the “Binds to 0405” value is “no”. For the same substance, in test [3], the “Binds to 0401” value is recorded as “*0401”.
On to “vimentin 77: human vimentin peptide, not citrullinated (REYQDLLNVKMALDI; listed as Homo sapiens)”, for which the “Binds to 0101” value in test [4] was “*0101”. Further, the “Binds to 0405” value in test [2] is “*0405”.
With “type II collagen 411: citrullinated human collagen type II peptide (GIVGLPGQ[Cit]GE[Cit]GFP; listed as Homo sapiens)”, the “Binds to 0404” value in test [1] was “*0404”. In test [2], the “Binds to 0405” value is recorded as “*0405”. In addition, the “Binds to 0401” value in test [3] was “*0401”.
Regarding “type II collagen 242: human collagen type II peptide, not citrullinated (GIVGLPGQRGERGFP; listed as Homo sapiens)”, the “Binds to 0101” value in test [4] is “*0101”. In test [1], the “Binds to 0404” value is given as “*0404”. Further, in test [2], the “Binds to 0405” value is on record as “*0405”. Further, the “Binds to 0401” value in test [3] is recorded as “*0401”.
For “vimentin 105: citrullinated human vimentin peptide (YAT[Cit]SSAV[Cit]L[Cit]SSVP; listed as Homo sapiens)”, in that order: “*0101”, “no”, “no” and “*0401”.
For “vimentin 33: human vimentin peptide, not citrullinated (VDQLTNDKARVEVER; listed as Homo sapiens)”, in that order: “no”, “*0404”, “no” and “*0401”.
The like results for “vimentin 166: citrullinated human vimentin peptide (THSK[Cit]TLLIKTVET[Cit]; listed as Homo sapiens)” were, in that order, “no”, “*0404”, “no” and “no”.
With “vimentin 117: citrullinated human vimentin peptide (LLAELEQLKGQGKS[Cit]; listed as Homo sapiens)”, the “Binds to 0101” value in test [4] was “*0101”. In addition, the “Binds to 0404” value in test [1] is “No”. Also, the “Binds to 0405” value in test [2] was “no”.
For “vimentin 106: citrullinated human vimentin peptide (SAV[Cit]L[Cit]SSVPGV[Cit]LL; listed as Homo sapiens)”, the “Binds to 0101” value in test [4] is recorded as “*0101”. For the same substance, the “Binds to 0404” value in test [1] is reported as “*0404”. Also, in test [2], the “Binds to 0405” value is “*0405”. Besides, the “Binds to 0401” value in test [3] was “*0401”.
Take “vimentin 98: citrullinated human vimentin peptide (SS[Cit]SYVTTST[Cit]TYSL; listed as Homo sapiens)”: the “Binds to 0405” value in test [2] was “*0405”. Also, in test [3], the “Binds to 0401” value was “*0401”.
With “vimentin 108: citrullinated human vimentin peptide (GVXLLQDSVDFSLAD; citrullinated; MOD_RES (3)..(3) Citrulline; listed as Homo sapiens)”, the “Binds to 0101” value in test [4] is given as “no”. In test [1], the “Binds to 0404” value is on record as “no”. The “Binds to 0405” value in test [2] is “no”. In addition, in test [3], the “Binds to 0401” value is “*0401”.
As to “vimentin 133: citrullinated human vimentin peptide (DNASLA[Cit]LDLE[Cit]KVE; listed as Homo sapiens)”, the “Binds to 0101” value in test [4] was “no”. Moreover, the “Binds to 0404” value in test [1] is listed as “No”. Also, the “Binds to 0405” value in test [2] was “no”. The “Binds to 0401” value in test [3] is “*0401”.
Consider “vimentin 81: human vimentin peptide, not citrullinated (RKLLEGEESRISLPL; listed as Homo sapiens)”, for which the “Binds to 0101” value in test [4] was “no”. Moreover, the “Binds to 0404” value in test [1] is given as “no”. The “Binds to 0405” value in test [2] is reported as “no”. Also, the “Binds to 0401” value in test [3] is “*0401”.
“vimentin 1: human vimentin peptide, not citrullinated (MSTRSVSSSSYRRMF; listed as Homo sapiens)”: the “Binds to 0101” value in test [4] is recorded as “*0101”. Also, the “Binds to 0404” value in test [1] is reported as “*0404”. Also, the “Binds to 0405” value in test [2] is listed as “no”. For the same substance, the “Binds to 0401” value in test [3] is recorded as “*0401”.
Take “vimentin 34: human vimentin peptide, not citrullinated (NDKARVEVERDNLAE; listed as Homo sapiens)”: the “Binds to 0101” value in test [4] is given as “no”. Further, the “Binds to 0405” value in test [2] is “no”. Also, the “Binds to 0401” value in test [3] is “*0401”.
For the substance “type II collagen 241: human collagen type II peptide, not citrullinated (LAGQRGIVGLPGQRG; listed as Homo sapiens)”, in test [1], the “Binds to 0404” value is on record as “*0404”. Besides, the “Binds to 0405” value in test [2] is “*0405”. Further, the “Binds to 0401” value in test [3] is recorded as “no”.
For “type II collagen 332: citrullinated human collagen type II peptide ([Cit]GPPGPQGA[Cit]GFPGT; listed as Homo sapiens)”, in that order: “*0404”, “*0405” and “*0401”.
Turning to “vimentin 64: human vimentin peptide, not citrullinated (STEYRRQVQSLTCEV; listed as Homo sapiens)”, the “Binds to 0101” value in test [4] is “*0101”. For the same substance, the “Binds to 0405” value in test [2] is recorded as “*0405”. For the same substance, the “Binds to 0401” value in test [3] is “*0401”.
For the substance “vimentin 3: human vimentin peptide, not citrullinated (YRRMFGGPGTASRPS; listed as Homo sapiens)”, in test [4], the “Binds to 0101” value is given as “*0101”. In test [1], the “Binds to 0404” value is “*0404”. The “Binds to 0405” value in test [2] is given as “*0405”. Further, the “Binds to 0401” value in test [3] was “*0401”.
For “vimentin 104: citrullinated human vimentin peptide (SPGGVYAT[Cit]SSAV[Cit]L; listed as Homo sapiens)”, in that order: “*0101”, “*0404”, “no” and “*0401”.

Values taken from US10774129B2, “Complexes of types of MHC class II that bind to collagen type II peptides and their use on diagnosis and treatment” (FRAUNHOFER-GESELLSCHAFT ZUR FÖRDERUNG DER ANGEWANDTEN …, priority 2011, dated 2020).
